Measured values published in IntAct's records for PubMed 31515488.

B1: Kelch-like protein 2 (Homo sapiens), O95198 (parent)
chain: METPPLPPACTKQGHQKPLDSKDDNTEKHCPVTVNPWHMKKAFKVMNELRSQNLLCDVTIVAEDMEISAHRVVLAACSPYFHAMFTGEMSESRAKRVRIKEVDGWTLRMLIDYVYTAEIQVTEENVQVLLPAAGLLQLQDVKKTCCEFLESQLHPVNCLGIRAFADMHACTDLLNKANTYAEQHFADVVLSEEFLNLGIEQVCSLISSDKLTISSEEKVFEAVIAWVNHDKDVRQEFMARLMEHVRLPLLPREYLVQRVEEEALVKNSSACKDYLIEAMKYHLLPTEQRILMKSVRTRLRTPMNLPKLMVVVGGQAPKAIRSVECYDFKEERWHQVAELPSRRCRAGMVYMAGLVFAVGGFNGSLRVRTVDSYDPVKDQWTSVANMRDRRSTLGAAVLNGLLYAVGGFDGSTGLSSVEAYNIKSNEWFHVAPMNTRRSSVGVGVVGGLLYAVGGYDGASRQCLSTVECYNATTNEWTYIAEMSTRRSGAGVGVLNNLLYAVGGHDGPLVRKSVEVYDPTTNAWRQVADMNMCRRNAGVCAVNGLLYVVGGDDGSCNLASVEYYNPTTDKWTVVSSCMSTGRSYAGVTVIDKPL
partner: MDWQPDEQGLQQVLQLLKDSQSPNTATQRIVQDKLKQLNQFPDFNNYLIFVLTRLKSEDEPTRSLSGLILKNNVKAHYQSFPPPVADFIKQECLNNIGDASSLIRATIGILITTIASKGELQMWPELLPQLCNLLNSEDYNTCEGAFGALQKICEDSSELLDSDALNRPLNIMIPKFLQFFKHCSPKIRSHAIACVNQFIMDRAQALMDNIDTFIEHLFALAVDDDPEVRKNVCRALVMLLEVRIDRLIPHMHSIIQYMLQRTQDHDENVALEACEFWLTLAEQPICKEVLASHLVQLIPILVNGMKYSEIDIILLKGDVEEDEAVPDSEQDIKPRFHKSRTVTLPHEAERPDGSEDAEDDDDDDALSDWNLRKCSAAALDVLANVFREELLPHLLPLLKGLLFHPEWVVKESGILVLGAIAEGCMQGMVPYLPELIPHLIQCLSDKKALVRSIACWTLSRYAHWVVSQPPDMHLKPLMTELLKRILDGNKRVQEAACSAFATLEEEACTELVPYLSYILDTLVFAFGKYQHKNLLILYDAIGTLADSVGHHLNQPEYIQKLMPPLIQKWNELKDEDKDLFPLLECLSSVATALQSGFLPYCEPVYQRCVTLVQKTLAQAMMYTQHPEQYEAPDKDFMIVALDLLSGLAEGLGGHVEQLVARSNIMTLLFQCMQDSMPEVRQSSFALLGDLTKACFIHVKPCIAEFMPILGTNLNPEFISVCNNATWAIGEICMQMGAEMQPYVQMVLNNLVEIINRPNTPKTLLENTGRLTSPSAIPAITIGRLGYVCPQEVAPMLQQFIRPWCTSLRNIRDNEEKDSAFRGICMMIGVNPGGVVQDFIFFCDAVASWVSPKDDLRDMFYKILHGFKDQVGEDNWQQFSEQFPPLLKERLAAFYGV
B2: Protein dispatched homolog 1 (Homo sapiens), Q96F81 (parent)
chain: MAMSNGNNDFVVLSNSSIATSAANPSPLTPCDGDHAAQQLTPKEATRTKVSPNGCLQLNGTVKSSFLPLDNQRMPQMLPQCCHPCPYHHPLTSHSSHQECHPEAGPAAPSALASCCMQPHSEYSASLCPNHSPVYQTTCCLQPSPSFCLHHPWPDHFQHQPVQQHIANIRPSRPFKLPKSYAALIADWPVVVLGMCTMFIVVCALVGVLVPELPDFSDPLLGFEPRGTAIGQRLVTWNNMVKNTGYKATLANYPFKYADEQAKSHRDDRWSDDHYEREKREVDWNFHKDSFFCDVPSDRYSRVVFTSSGGETLWNLPAIKSMCNVDNSRIRSHPQFGDLCQRTTAASCCPSWTLGNYIAILNNRSSCQKIVERDVSHTLKLLRTCAKHYQNGTLGPDCWDMAARRKDQLKCTNVPRKCTKYNAVYQILHYLVDKDFMTPKTADYATPALKYSMLFSPTEKGESMMNIYLDNFENWNSSDGVTTITGIEFGIKHSLFQDYLLMDTVYPAIAIVIVLLVMCVYTKSMFITLMTMFAIISSLIVSYFLYRVVFHFEFFPFMNLTALIILVGIGADDAFVLCDVWNYTKFDKPHAETSETVSITLQHAALSMFVTSFTTAAAFYANYVSNITAIRCFGVYAGTAILVNYVLMVTWLPAVVVLHERYLLNIFTCFKKPQQQIYDNKSCWTVACQKCHKVLFAISEASRIFFEKVLPCIVIKFRYLWLFWFLALTVGGAYIVCINPKMKLPSLELSEFQVFRSSHPFERYDAEYKKLFMFERVHHGEELHMPITVIWGVSPEDNGNPLNPKSKGKLTLDSSFNIASPASQAWILHFCQKLRNQTFFYQTDEQDFTSCFIETFKQWMENQDCDEPALYPCCSHWSFPYKQEIFELCIKRAIMELERSTGYHLDSKTPGPRFDINDTIRAVVLEFQSTYLFTLAYEKMHQFYKEVDSWISSELSSAPEGLSNGWFVSNLEFYDLQDSLSDGTLIAMGLSVAVAFSVMLLTTWNIIISLYAIISIAGTIFVTVGSLVLLGWELNVLESVTISVAVGLSVDFAVHYGVAYRLAPDPDREGKVIFSLSRVGSAMAMAALTTFVAGAMMMPSTVLAYTQLGTFMMLIMCISWAFATFFFQCMCRCLGPQGTCGQIPLPKKLQCSAFSHALSTSPSDKGQSKTHTINAYHLDPRGPKSELEHEFYELEPLASHSCTAPEKTTYEETHICSEFFNSQAKNLGMPVHAAYNSELSKSTESDAGSALLQPPLEQHTVCHFFSLNQRCSCPDAYKHLNYGPHSCQQMGDCLCHQCSPTTSSFVQIQNGVAPLKATHQAVEGFVHPITHIHHCPCLQGRVKPAGMQNSLPRNFFLHPVQHIQAQEKIGKTNVHSLQRSIEEHLPKMAEPSSFVCRSTGSLLKTCCDPENKQRELCKNRDVSNLESSGGTENKAGGKVELSLSQTDASVNSEHFNQNEPKVLFNHLMGEAGCRSCPNNSQSCGRIVRVKCNSVDCQMPNMEANVPAVLTHSELSGESLLIKTL
partner: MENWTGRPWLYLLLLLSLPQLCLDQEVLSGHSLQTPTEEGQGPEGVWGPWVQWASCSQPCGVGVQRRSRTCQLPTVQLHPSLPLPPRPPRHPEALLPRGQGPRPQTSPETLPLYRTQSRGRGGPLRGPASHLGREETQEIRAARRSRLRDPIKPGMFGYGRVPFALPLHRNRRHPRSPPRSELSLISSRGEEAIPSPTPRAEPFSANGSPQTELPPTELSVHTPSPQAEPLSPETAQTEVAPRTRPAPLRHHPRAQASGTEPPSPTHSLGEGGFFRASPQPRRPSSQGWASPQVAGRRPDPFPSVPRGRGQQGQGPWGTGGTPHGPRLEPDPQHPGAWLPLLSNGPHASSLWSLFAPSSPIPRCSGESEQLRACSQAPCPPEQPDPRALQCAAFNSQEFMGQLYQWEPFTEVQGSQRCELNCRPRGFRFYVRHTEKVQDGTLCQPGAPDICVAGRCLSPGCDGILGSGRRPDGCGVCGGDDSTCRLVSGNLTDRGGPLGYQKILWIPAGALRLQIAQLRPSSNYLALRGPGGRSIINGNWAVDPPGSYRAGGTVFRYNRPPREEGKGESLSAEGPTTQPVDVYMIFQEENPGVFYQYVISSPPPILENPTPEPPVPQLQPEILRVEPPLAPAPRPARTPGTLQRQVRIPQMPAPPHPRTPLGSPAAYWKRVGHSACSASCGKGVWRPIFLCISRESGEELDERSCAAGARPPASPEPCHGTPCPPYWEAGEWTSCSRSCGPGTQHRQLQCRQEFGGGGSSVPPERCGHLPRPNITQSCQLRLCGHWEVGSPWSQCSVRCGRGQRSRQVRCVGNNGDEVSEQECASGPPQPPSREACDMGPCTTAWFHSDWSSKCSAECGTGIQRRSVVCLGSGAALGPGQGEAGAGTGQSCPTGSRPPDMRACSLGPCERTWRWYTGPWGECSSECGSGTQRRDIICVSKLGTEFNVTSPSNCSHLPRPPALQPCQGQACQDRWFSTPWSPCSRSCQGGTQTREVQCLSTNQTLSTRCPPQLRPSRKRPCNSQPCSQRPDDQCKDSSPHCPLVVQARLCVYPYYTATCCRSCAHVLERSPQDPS
B3: Protein FAM200C (Homo sapiens), Q8IZ13 (parent)
chain: MSKKRKWDDDYVRYWFTCTTEVDGTQRPQCVLCNSVFSNADLRPSKLSDHFNRQHGGVAGHDLNSLKHMPAPSDQSETLKAFGVASHEDTLLQASYQFAYLCAKEKNPHTVAEKLVKPCALEIAQIVLGPDAQKKLQQVPLSDDVIHSRIDEMSQDILQQVLEDIKASPLKVGIQLAETTDMDDCSQLMAFVRYIKEREIVEEFLFCEPLQLSMKGIDVFNLFRDFFLKHKIALDVCGSVCTDGASSMLGENSEFVAYVKKEIPHIVVTHCLLNPHALVIKTLPTKLRDALFTVVRVINFIKGRAPNHRLFQAFFEEIGIEYSVLLFHTEMRWLSRGQILTHIFEMYEEINQFLHHKSSNLVDGFENKEFKIHLAYLADLFKHLNELSASMQRTGMNTVSAREKLSAFVRKFPFWQKRIEKRNFTNFPFLEEIIVSDNEGIFIAAEITLHLQQLSNFFHGYFSIGDLNEASKWILDPFLFNIDFVDDSYLMKNDLAELRASGQILMEFETMKLEDFWCAQFTAFPNLAKTALEILMPFATTYLCELGFSSLLHFKTKSRSCFNLSDDIRVAISKKVPRFSDIIEQKLQLQQKSL
partner: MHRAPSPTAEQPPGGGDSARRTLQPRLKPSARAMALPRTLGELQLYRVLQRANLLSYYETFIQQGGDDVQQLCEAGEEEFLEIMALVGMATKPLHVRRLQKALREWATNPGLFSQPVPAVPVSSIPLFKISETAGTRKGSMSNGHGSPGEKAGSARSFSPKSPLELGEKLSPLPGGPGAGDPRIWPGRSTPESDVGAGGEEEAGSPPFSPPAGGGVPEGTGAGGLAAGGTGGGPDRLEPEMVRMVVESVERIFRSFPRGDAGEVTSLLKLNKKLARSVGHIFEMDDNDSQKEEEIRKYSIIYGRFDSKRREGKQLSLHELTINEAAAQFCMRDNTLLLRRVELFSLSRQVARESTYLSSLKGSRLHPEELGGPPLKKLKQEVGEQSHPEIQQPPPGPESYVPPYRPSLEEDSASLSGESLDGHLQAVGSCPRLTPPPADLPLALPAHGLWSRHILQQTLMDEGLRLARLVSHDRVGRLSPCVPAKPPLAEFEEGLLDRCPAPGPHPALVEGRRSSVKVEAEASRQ

Variants of: B1
Conditions: with tnpo2_human TNPO2, O14787

Row | Variant | effect of a mutation on the interaction
1 | METPPLPPACTKQGHQKPLDSKDDNTEKHCPVTVNPWHMKKAFKVMNELRSQNLLCDVTIVAEDMEIAAHRVVLAACSPYFHAMFTGEMSESRAKRVRIKEVDGWTLRMLIDYVYTAEIQVTEENVQVLLPAAGLLQLQDVKKTCCEFLESQLHPVNCLGIRAFADMHACTDLLNKANTYAEQHFADVVLSEEFLNLGIEQVCSLISSDKLTISSEEKVFEAVIAWVNHDKDVRQEFMARLMEHVRLPLLPREYLVQRVEEEALVKNSSACKDYLIEAMKYHLLPTEQRILMKSVRTRLRTPMNLPKLMVVVGGQAPKAIRSVECYDFKEERWHQVAELPSRRCRAGMVYMAGLVFAVGGFNGSLRVRTVDSYDPVKDQWTSVANMRDRRSTLGAAVLNGLLYAVGGFDGSTGLSSVEAYNIKSNEWFHVAPMNTRRSSVGVGVVGGLLYAVGGYDGASRQCLSTVECYNATTNEWTYIAEMSTRRSGAGVGVLNNLLYAVGGHDGPLVRKSVEVYDPTTNAWRQVADMNMCRRNAGVCAVNGLLYVVGGDDGSCNLASVEYYNPTTDKWTVVSSCMSTGRSYAGVTVIDKPL [S68A] | with no effect
2 | METPPLPPACTKQGHQKPLDSKDDNTEKHCPVTVNPWHMKKAFKVMNELRSQNLLCDVTIVAEDMEISAHRVVLAACSPYFHAMFTGEMSESRAKRVRIKEVDGWTLRMLIDYVYTAEIQVTEENVQVLLPAAGLLQLQDVKKTCCEFLESQLHPVNCLGIRAFADMHACTDLLNKANTYAEQHFADVVLSEEFLNLGIEQVCSLISSDKLTISSEEKVFEAVIAWVNHDKDVRQEFMARLMEHVRLPLLPREYLVQRVEEEALVKNSSACKDYLIEAMKYHLLPTEQRILMKSVRTRLRTPMNLPKLMVVVGGQAPKAIRSVECYDFKEERWHQVAELPSRRCRAGMVYMAGLVFAVGGFNGSLRVRTVDSYDPVKDQWTSVANMRDRRSTLGAAVLNGLLYAVGGFDGSTGLSSVEAYNIKSNEWFHVAPMNTRRSSVGVGVVGGLLYAVGGYDGASRQCLSTVECYNATTNEWTYITEMSTRRSGAGVGVLNNLLYAVGGHDGPLVRKSVEVYDPTTNAWRQVADMNMCRRNAGVCAVNGLLYVVGGDDGSCNLASVEYYNPTTDKWTVVSSCMSTGRSYAGVTVIDKPL [A480T] | with no effect

Variants of: B2
Conditions: with atl4_human ADAMTSL4, Q6UY14

Row | Variant | effect of a mutation on the interaction
3 | E103K | with no effect
4 | E103D | with no effect

Variants of: B3
Conditions: with nab2_human NAB2, Q15742

Row | Variant | effect of a mutation on the interaction
5 | A523S | with no effect
